From patent publication US20030032582A1

Legend:
Test in all cases: cell-based or functional assay
TCR Vβ5 (human) = target: TCR Vβ5 (human)
TCR Vβ8 (human) = target: TCR Vβ8 (human)
TCR Vβ2 (human) = target: TCR Vβ2 (human)

H-TSST1 (ligand)
CD3^+ Blasts Binding Anti-Vβ (%) (TCR Vβ5 (human)): 4.5% | CD3^+ Blasts Binding Anti-Vβ, fold difference versus unstimulated controls (TCR Vβ5 (human)): 2 fold | CD3^+ Lymphocytes Binding Anti-Vβ (%) (TCR Vβ5 (human)): 2% | CD3^+ Lymphocytes Binding Anti-Vβ, fold difference versus unstimulated controls (TCR Vβ5 (human)): 0.9 fold | CD3^+ Blasts Binding Anti-Vβ (%) (TCR Vβ8 (human)): 4.6% | CD3^+ Blasts Binding Anti-Vβ, fold difference versus unstimulated controls (TCR Vβ8 (human)): 1.1 fold | CD3^+ Lymphocytes Binding Anti-Vβ (%) (TCR Vβ8 (human)): 4.1% | CD3^+ Lymphocytes Binding Anti-Vβ, fold difference versus unstimulated controls (TCR Vβ8 (human)): 1 fold | CD3^+ Blasts Binding Anti-Vβ (%) (TCR Vβ2 (human)): 33% | CD3^+ Blasts Binding Anti-Vβ, fold difference versus unstimulated controls (TCR Vβ2 (human)): 3.4 fold | CD3^+ Lymphocytes Binding Anti-Vβ (%) (TCR Vβ2 (human)): 5.1% | CD3^+ Lymphocytes Binding Anti-Vβ, fold difference versus unstimulated controls (TCR Vβ2 (human)): 0.5 fold
